In one data set the test system is Eval-positive HuCCT-1. Kind of data set: Amplification of Eval-CAR-T after antigen stimulation (co-culture with irradiated Eval-positive HuCCT-1). The format is cell-based, human. The method, then:
Eval-positive HuCCT-1, was irradiated with a radioactive ray of 100 Gy, and was co-cultured with the CAR-Ts in 1:1, and the amplification efficiencies of these were analyzed. In FIG. 3J, amplification efficiencies in time series are shown. In FIG. 3K, the amplification factors at Day 4 were plotted.
In the same manner as described above, Eval-positive HuCCT-1, was irradiated with a radioactive ray of 100 Gy, and was co-cultured with the CAR-T-cells in 1:1. Then, 50 U/ml of IL-2 was added once every three days, at Day 1, 4, and 7, followed by culturing. In FIG. 3L, the respective amplification efficiencies in time series are shown. In FIG. 3M, the amplification factors at Day 18 were plotted.
In the same manner as described above, Eval-positive HuCCT-1, was irradiated with a radioactive ray of 100 Gy, and was co-cultured with hEva1 CAR-T-cells in 1:1.
In the same manner as described above, Eval-positive HuCCT-1, was irradiated with a radioactive ray of 100 Gy, and was co-cultured with hEva1-CAR-Ts in 1:1.

For data set [1], the system named is various tumor cell lines (Eval positive and Eval negative). Kind of data set: Cytokine production of Eval-CAR-T co-cultured with tumor cell lines (intracellular staining, flow cytometry). Type of data set: cell-based, human. As to conditions: co-culture 1:1, 6 hours, Day 17 cells. The method, then: Next, the cytokine production capacity of the Eval-CAR-T using the anti-human Eval mouse antibody sequence was analyzed. Specifically, CAR-T prepared as described above was cultured until day 17, and the cells were co-cultured with various main cell lines in 1:1. After co-culturing for 6 hours, immobilization and intracellular staining (BD cytofix/cytoperm buffer) were conducted to stain the cells with IFN-gamma (IFN-γ).
The experiment was conducted by using the above-described Eval-CAR-Ts at Day 17. Specifically, the Eval-CAR-Ts were co-cultured with tumor cell lines in 1:1, and the cells were immobilized and stained in the same methods as described above after 6 hours, and intracellular IFN-gamma and IL-2 were evaluated with flow cytometry.
The experiment was conducted by using hEva1-CAR-Ts at Day 17. Specifically, hEva1-CAR-Ts were co-cultured with tumor cell lines in 1:1, and the cells were immobilized and stained in the same manner as described above after 6 hours, and intracellular IFN-gamma and IL-2 were evaluated with flow cytometry. These figures show the percentages at which the cytokine was positive among the CD8 positive cells.
The experiment was conducted by using the above-described hEva1-CAR-Ts at Day 17. Specifically, the hEva1-CAR-Ts were co-cultured with tumor cell lines in 1:1, and the cells were immobilized and stained in the same manner as described above after […], and intracellular IFN-gamma and IL-2 were evaluated with flow cytometry. These figures show the percentages at which each cytokine was positive among the CD8 positive cells.

In data set [2] the test system is Human glioma stem cells (hGIC). Kind of data set: Cytotoxicity assay of B2E5-ADC against glioma (MTT). Type of data set: cell-based.
Description: Human glioma stem cells (hGIC) were inoculated in a 96-well plate in an amount of 1000 cells per well. […] Then, 5 μl of MTT (5 mg/ml, Wako Pure Chemical) was added to each well, followed by culturing for 2 hours in a CO2 incubator at 37° C. After the culture liquid was discarded, 90 μl of DMSO was added, and after the cells were dissolved, the absorbance (570 nm) was measured by using a benchmark (Bio-Rad).
Note that as a positive control (100%), a measured value in a well in the absence of the antibody was used. In addition, as a negative control (0%), a measured value obtained by adding 5 μl of 1% TritonX100 to a well in the absence of the antibody was used.
The subject of another data set is hEva1-mouse Fc. Kind of data set: Surface plasmon resonance kinetics analysis (BiaCore T200, single-cycle). The format is binding, human. As to conditions: SPR, antibody captured 5 nM, analyte hEva1-mouse Fc 1-250 nM, HBS-EP+ pH 7.4. How it is done: The dissociation constants and association constants of the humanized antibodies and the like were analyzed by using surface plasmon resonance (SPR, product name: BiaCore T200 (manufactured by GE healthcare)).
Specifically, first, human IgG capture antibodies were immobilized on a CM5 chip by an amine coupling method. This immobilization was conducted in both reference cells and active cells. Then, the kinetics analysis on the anti-Eval antibody and hEva1 was conducted by a single-cycle method using the following measurement conditions.
• Sample compartment temperature: 10° C. • Running buffer: HBS-EP+buffer, pH 7.4 • Capturing molecule: Human IgG antibody, reference & active cells • Ligand: Various antibodies 5 nM, active cells only • Analyte: hEva1-mouse Fc1, 5, 25, 125, 250 nM, reference & active cells • Regeneration buffer: 3M MgCl2, reference & active cells • 3 cycles of Blanks (Analyte zero concentration)
(In general: In SPR one partner is held on a chip, and binding of the other changes the refractive index at the surface.)

Where [3] appears, read: 50 U/ml IL-2 at Day 1, 4, 7, co-culture 1:1 with HuCCT-1 irradiated 100 Gy.
Where [4] appears, read: absence of IL-2, co-culture 1:1 with HuCCT-1 irradiated 100 Gy.

“Also recorded” adds a separate entry of the source.

This is an account of results in patent publication US20250186602A1, “HUMANIZED ANTIBODY THAT BONDS TO EVA1 PROTEIN OR FUNCTIONAL FRAGMENT THEREOF, ANTIBODY-DRUG CONJUGATE AND CHIMERIC ANTIGEN RECEPTOR” (CURED INC., priority 2022, published 2025).

Sequence of hEva1-mouse Fc (O60487 27-154 limits assumed): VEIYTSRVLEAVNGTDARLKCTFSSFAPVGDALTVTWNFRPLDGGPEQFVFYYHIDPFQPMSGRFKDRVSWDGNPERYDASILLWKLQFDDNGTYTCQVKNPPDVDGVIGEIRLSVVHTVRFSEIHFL

In the case of “30aa: mouse antibody-derived Eval-CAR-T with spacer length 30aa (SEQ ID NO: 60) (EPKSSDKTHTSPPCPAPEFLGGPSVFLFPP; Hinge region:30aa)”, the “amplification efficiency after Eval stimulation” value is “cell amplifications tended to be better” in the data set with Eval-positive HuCCT-1 (setting [3]) and “higher cell amplifications” in the data set on Eval-positive HuCCT-1 (setting [4]). Also, the “cytokine production (intracellular IFN-gamma and IL-2)” value (shortened to “cytokine production”) in data set [1] is on record as “excellent cytokine productions”.

B1: H2-L2: humanized B2E5-48 IgG1, VH H2 (SEQ ID NO: 13), VL L2 (SEQ ID NO: 7) (antibody, V domains shown)
VH: QVQLVQSGAEVKKPGASVKVSCKASGYTFTNYWMHWVRQAPGQGLEWMGEINPTNGGTDYNEKFQGRVTMTVDKSTSTAYMELSSLRSEDTAVYYCTIYTTALDYWGQGTLVTVSS
VL: EIVLTQSPATLSLSPGERATLSCRASSSVGYMYWYQQKPGQAPRPLIYVTSNRATGIPARFSGSGSGTDYTLTISSLEPEDFAVYYCQQWSSNPPTFGQGTKLEIK
modifications: Variable Region of Heavy Chain 2 (Humanized B2E5-48); Variable Region of Light Chain 2 (Humanized B2E5-48)
As for B1, the “cytotoxic activity against hGIC” value in data set [2] is “no cytotoxic activity”. Besides, in the data set with hEva1-mouse Fc, the ka was 19720 M⁻¹ s⁻¹ and the kd is 0.009201 s⁻¹.

B2: 125aa: mouse antibody-derived Eval-CAR-T with spacer length 125aa (SEQ ID NO: 62) (protein)
chain: EPKSSDKTHTSPPCPAPEFLGGPSVFLFPPKPKDTLMISRTPEVTCVVVDVSQEDPEVQFNWYVDGVEVHNAKTKPREEQFNSTYRVVSVLTVLHQDWLNGKEYKCKVSNKGLPSSIEKTISKAK
modifications: Hinge region:125aa
For the molecule B2, the “cytokine production” value in data set [1] is on record as “excellent cytokine productions”.

B3: 232aa: mouse antibody-derived Eval-CAR-T with spacer length 232aa (SEQ ID NO: 63) (protein)
chain: EPKSSDKTHTSPPCPAPEFLGGPSVFLFPPKPKDTLMISRTPEVTCVVVDVSQEDPEVQFNWYVDGVEVHNAKTKPREEQFNSTYRVVSVLTVLHQDWLNGKEYKCKVSNKGLPSSIEKTISKAKGQPREPQVYTLPPSQEEMTKNQVSLTCLVKGFYPSDIAVEWESNGQPENNYKTTPPVLDSDGSFFLYSRLTVDKSRWQEGNVFSCSVMHEALHNHYTQKSLSLSLGK
modifications: Hinge region:232aa
Regarding B3, the “amplification efficiency after Eval stimulation” value with Eval-positive HuCCT-1 (setting [3]) is “cell amplifications tended to be better”; in the data set on Eval-positive HuCCT-1 (setting [4]), “higher cell amplifications; also recorded: most excellent in cell growth and cytokine production”. For the same molecule, the “cytokine production” value in data set [1] is “most excellent cytokine production capacity”.
